Measurements: PMC13199644, “Optimized Quantitative Bacterial Two-Hybrid (qB2H) for Protein–Protein Interaction Assessment” (Computational and Structural Biotechnology Journal, 2026)

Biological target: T1, Recombinant human ASF1AN (residues 1 to 156) (human, UniProt Q9Y294 1-156)
T1 construct: N-terminal domain of human ASF1A, UniProt Q9Y294, residues 1 to 156; Unlabeled for ITC; uniformly 15N- and/or 15N-13C-labeled for NMR; Made from pETM30 with a TEV cleavage site; also called hASF1AN; 15N-ASF1AN; source: E. coli, purified (glutathione agarose, TEV cleavage, Ni-NTA flow-through, Resource Q); not shown: His6, N-terminal, cleaved; GST, N-terminal, cleaved
Experiment: ITC; VP-ITC, 20 °C, 50 mM tris-HCl pH 7.5; binder injected into the ASF1 solution; One Set of Sites model; duplicate
Settings: both partners purified

T1 sequence (Q9Y294 1-156): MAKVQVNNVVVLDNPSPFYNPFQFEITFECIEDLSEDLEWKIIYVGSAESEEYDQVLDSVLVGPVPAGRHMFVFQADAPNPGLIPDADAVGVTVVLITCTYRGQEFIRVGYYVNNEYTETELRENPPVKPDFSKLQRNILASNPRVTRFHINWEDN

B1: ip4_mutG (peptide)
peptide: WARLARRTAGAGGVTLNGAG
notes: also called constant C-terminal scaffold
- Kd: 10600 ± 1000 nM

B2: Kan[348]_top1 (SAAARWAAALAALP-GSK-ip4_mutG), purified peptide (designed binder)
peptide: SAAARWAAALAALPGSKWARLARRTAGAGGVTLNGAG
notes: designed N-terminal extension; linker; ip4_mutG; source: E. coli BL21(DE3) Star, purified (Ni-NTA, SUMO protease, Resource RPC, Superdex 30); not shown: His6, N-terminal, cleaved; SUMO, N-terminal, cleaved
- Kd: 235 ± 26 nM

B3: T32_Kan[209]_top1 (AEEEAARFAALLAALP-GSK-ip4_mutG), purified peptide (designed binder)
peptide: AEEEAARFAALLAALPGSKWARLARRTAGAGGVTLNGAG
notes: as for B2
- Kd: 152 ± 25 nM

B4: Kan[348]_top2 (AAAERARFAALLAKLP-GSK-ip4_mutG), purified peptide (designed binder)
peptide: AAAERARFAALLAKLPGSKWARLARRTAGAGGVTLNGAG
notes: as for B2
- Kd: 581 ± 98 nM
